# Measured values taken from paper PMC10586804.
# Tests used:
# [1] = biological target: vasopressin type 2 receptor (UniProt P30518)
# [2] = biological target: chimeric V2R harboring the carboxy-terminal tail of the β2-adrenergic receptor
# [3] = biological target: vasopressin type 2 receptor (UniProt P30518); remark: listed apart in the source
substance,measurement,setting,value
mini G protein mGs,"AVP-mediated maximal efficacy of Rluc-mGs recruitment to early endosomes (EbBRET with rGFP-Rab5), AVP dose-response, 45 min, cells expressing V2R",[1],0.167 ΔEbBRET
same,"AVP-mediated maximal efficacy of Rluc-mGs recruitment to the plasma membrane (EbBRET with rGFP-CAAX), AVP dose-response, 10 min, cells expressing V2R",[1],0.3 ΔEbBRET
same,"Potency of AVP (logEC50) for Rluc-mGs recruitment to early endosomes (EbBRET with rGFP-Rab5), 45 min, cells expressing V2R",[1],-8.65 logEC50
same,"Potency of AVP (logEC50) for Rluc-mGs recruitment to the plasma membrane (EbBRET with rGFP-CAAX), 10 min, cells expressing V2R",[1],-8.07 logEC50
same,"Transduction coefficient log(τ/Ka) of Rluc-mGs recruitment to early endosomes (EbBRET with rGFP-Rab5), cells expressing V2R",[1],8.63 log(τ/Ka)
same,"Transduction coefficient log(τ/Ka) of Rluc-mGs recruitment to the plasma membrane (EbBRET with rGFP-CAAX), cells expressing V2R",[1],7.98 log(τ/Ka)
same,"AVP-mediated maximal efficacy of Rluc-mGs recruitment to early endosomes (EbBRET with rGFP-Rab5), AVP dose-response, 45 min, cells expressing V2β2AR",[2],0.15 ΔEbBRET
same,"AVP-mediated maximal efficacy of Rluc-mGs recruitment to the plasma membrane (EbBRET with rGFP-CAAX), AVP dose-response, 10 min, cells expressing V2β2AR",[2],0.392 ΔEbBRET
same,"Potency of AVP (logEC50) for Rluc-mGs recruitment to early endosomes (EbBRET with rGFP-Rab5), 45 min, cells expressing V2β2AR",[2],-8.34 logEC50
same,"Potency of AVP (logEC50) for Rluc-mGs recruitment to the plasma membrane (EbBRET with rGFP-CAAX), 10 min, cells expressing V2β2AR",[2],-8.07 logEC50
same,"Transduction coefficient log(τ/Ka) of Rluc-mGs recruitment to early endosomes (EbBRET with rGFP-Rab5), cells expressing V2β2AR",[2],8.31 log(τ/Ka)
same,"Transduction coefficient log(τ/Ka) of Rluc-mGs recruitment to the plasma membrane (EbBRET with rGFP-CAAX), cells expressing V2β2AR",[2],8.04 log(τ/Ka)
same,"AVP-induced maximal efficacy of Rluc-mGs recruitment to early endosomes (EbBRET with rGFP-Rab5), AVP dose-response, 45 min, parental HEK293 cells",[3],0.18 ΔEbBRET
same,"AVP-induced maximal efficacy of Rluc-mGs recruitment to early endosomes (EbBRET with rGFP-Rab5), AVP dose-response, 45 min, Δβarr1/2 HEK293 cells",[3],0.074 ΔEbBRET
same,"AVP-induced maximal efficacy of Rluc-mGs recruitment to the plasma membrane (EbBRET with rGFP-CAAX), AVP dose-response, 10 min, parental HEK293 cells",[3],0.324 ΔEbBRET
same,"AVP-induced maximal efficacy of Rluc-mGs recruitment to the plasma membrane (EbBRET with rGFP-CAAX), AVP dose-response, 10 min, Δβarr1/2 HEK293 cells",[3],0.376 ΔEbBRET
same,"Potency of AVP (LogEC50) for Rluc-mGs recruitment to early endosomes (EbBRET with rGFP-Rab5), 45 min, parental HEK293 cells",[3],-8.37 LogEC50
same,"Potency of AVP (LogEC50) for Rluc-mGs recruitment to early endosomes (EbBRET with rGFP-Rab5), 45 min, Δβarr1/2 HEK293 cells",[3],-8.34 LogEC50
same,"Potency of AVP (LogEC50) for Rluc-mGs recruitment to the plasma membrane (EbBRET with rGFP-CAAX), 10 min, parental HEK293 cells",[3],-7.9 LogEC50
same,"Potency of AVP (LogEC50) for Rluc-mGs recruitment to the plasma membrane (EbBRET with rGFP-CAAX), 10 min, Δβarr1/2 HEK293 cells",[3],-7.99 LogEC50
mini G protein mGsq,"AVP-mediated maximal efficacy of Rluc-mGsq recruitment to early endosomes (EbBRET with rGFP-Rab5), AVP dose-response, 45 min, cells expressing V2R",[1],0.05 ΔEbBRET
same,"AVP-mediated maximal efficacy of Rluc-mGsq recruitment to the plasma membrane (EbBRET with rGFP-CAAX), AVP dose-response, 10 min, cells expressing V2R",[1],0.161 ΔEbBRET
same,"Potency of AVP (logEC50) for Rluc-mGsq recruitment to early endosomes (EbBRET with rGFP-Rab5), 45 min, cells expressing V2R",[1],-8.44 logEC50
same,"Potency of AVP (logEC50) for Rluc-mGsq recruitment to the plasma membrane (EbBRET with rGFP-CAAX), 10 min, cells expressing V2R",[1],-7.88 logEC50
same,"Transduction coefficient log(τ/Ka) of Rluc-mGsq recruitment to early endosomes (EbBRET with rGFP-Rab5), cells expressing V2R",[1],8.31 log(τ/Ka)
same,"Transduction coefficient log(τ/Ka) of Rluc-mGsq recruitment to the plasma membrane (EbBRET with rGFP-CAAX), cells expressing V2R",[1],7.9 log(τ/Ka)
same,"AVP-mediated maximal efficacy of Rluc-mGsq recruitment to early endosomes (EbBRET with rGFP-Rab5), AVP dose-response, 45 min, cells expressing V2β2AR",[2],0.061 ΔEbBRET
same,"AVP-mediated maximal efficacy of Rluc-mGsq recruitment to the plasma membrane (EbBRET with rGFP-CAAX), AVP dose-response, 10 min, cells expressing V2β2AR",[2],0.183 ΔEbBRET
same,"Potency of AVP (logEC50) for Rluc-mGsq recruitment to early endosomes (EbBRET with rGFP-Rab5), 45 min, cells expressing V2β2AR",[2],-7.82 logEC50
same,"Potency of AVP (logEC50) for Rluc-mGsq recruitment to the plasma membrane (EbBRET with rGFP-CAAX), 10 min, cells expressing V2β2AR",[2],-7.97 logEC50
same,"Transduction coefficient log(τ/Ka) of Rluc-mGsq recruitment to early endosomes (EbBRET with rGFP-Rab5), cells expressing V2β2AR",[2],7.91 log(τ/Ka)
same,"Transduction coefficient log(τ/Ka) of Rluc-mGsq recruitment to the plasma membrane (EbBRET with rGFP-CAAX), cells expressing V2β2AR",[2],7.99 log(τ/Ka)
same,"AVP-induced maximal efficacy of Rluc-mGsq recruitment to early endosomes (EbBRET with rGFP-Rab5), AVP dose-response, 45 min, parental HEK293 cells",[3],0.05 ΔEbBRET
same,"AVP-induced maximal efficacy of Rluc-mGsq recruitment to early endosomes (EbBRET with rGFP-Rab5), AVP dose-response, 45 min, Δβarr1/2 HEK293 cells",[3],0.024 ΔEbBRET
same,"AVP-induced maximal efficacy of Rluc-mGsq recruitment to the plasma membrane (EbBRET with rGFP-CAAX), AVP dose-response, 10 min, parental HEK293 cells",[3],0.168 ΔEbBRET
same,"AVP-induced maximal efficacy of Rluc-mGsq recruitment to the plasma membrane (EbBRET with rGFP-CAAX), AVP dose-response, 10 min, Δβarr1/2 HEK293 cells",[3],0.18 ΔEbBRET
same,"Potency of AVP (LogEC50) for Rluc-mGsq recruitment to early endosomes (EbBRET with rGFP-Rab5), 45 min, parental HEK293 cells",[3],-8.38 LogEC50
same,"Potency of AVP (LogEC50) for Rluc-mGsq recruitment to early endosomes (EbBRET with rGFP-Rab5), 45 min, Δβarr1/2 HEK293 cells",[3],-8.32 LogEC50
same,"Potency of AVP (LogEC50) for Rluc-mGsq recruitment to the plasma membrane (EbBRET with rGFP-CAAX), 10 min, parental HEK293 cells",[3],-7.81 LogEC50
same,"Potency of AVP (LogEC50) for Rluc-mGsq recruitment to the plasma membrane (EbBRET with rGFP-CAAX), 10 min, Δβarr1/2 HEK293 cells",[3],-7.95 LogEC50
